Results taken from PMC5470873.

Target: T1, mouse TMEM16A(ac) isoform (mouse), Q8BHY3
T1 chain: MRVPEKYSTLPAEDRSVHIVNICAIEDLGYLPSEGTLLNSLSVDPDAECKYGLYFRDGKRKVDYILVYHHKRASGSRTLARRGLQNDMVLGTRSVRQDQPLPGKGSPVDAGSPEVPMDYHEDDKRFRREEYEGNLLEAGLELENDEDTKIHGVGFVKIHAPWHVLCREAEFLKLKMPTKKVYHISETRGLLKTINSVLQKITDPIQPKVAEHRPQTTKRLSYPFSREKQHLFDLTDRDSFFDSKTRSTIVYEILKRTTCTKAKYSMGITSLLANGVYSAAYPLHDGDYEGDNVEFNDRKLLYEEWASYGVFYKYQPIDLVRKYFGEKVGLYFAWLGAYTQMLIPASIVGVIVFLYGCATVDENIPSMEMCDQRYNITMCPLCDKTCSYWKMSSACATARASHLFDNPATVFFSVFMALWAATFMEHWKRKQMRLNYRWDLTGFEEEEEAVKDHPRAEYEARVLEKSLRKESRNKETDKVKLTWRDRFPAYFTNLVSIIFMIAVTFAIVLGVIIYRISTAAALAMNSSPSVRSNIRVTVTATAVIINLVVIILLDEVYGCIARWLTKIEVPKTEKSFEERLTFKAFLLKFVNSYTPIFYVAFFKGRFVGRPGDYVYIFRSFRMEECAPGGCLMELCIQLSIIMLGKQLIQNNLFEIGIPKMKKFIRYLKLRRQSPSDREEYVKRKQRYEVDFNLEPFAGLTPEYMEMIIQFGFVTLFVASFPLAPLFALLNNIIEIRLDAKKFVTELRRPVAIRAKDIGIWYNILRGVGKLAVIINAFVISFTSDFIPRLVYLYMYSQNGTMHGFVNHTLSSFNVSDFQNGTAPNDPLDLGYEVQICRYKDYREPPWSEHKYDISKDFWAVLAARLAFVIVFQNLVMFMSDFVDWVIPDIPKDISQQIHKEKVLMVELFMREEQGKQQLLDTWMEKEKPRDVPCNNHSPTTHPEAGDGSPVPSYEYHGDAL
Assay: cryo-EM structure; purified mTMEM16A at 3 mg/ml in 0.12% digitonin, 20 mM HEPES pH 7.5, 150 mM NaCl, 0.5 mM CaCl2; single particle reconstruction with C2 symmetry imposed, 6.6 Å; poly-alanine model
Conditions: remark: other sources report otherwise

B1: mouse TMEM16A(ac) isoform, Q8BHY3 1-960 (natural protein)
chain: MRVPEKYSTLPAEDRSVHIVNICAIEDLGYLPSEGTLLNSLSVDPDAECKYGLYFRDGKRKVDYILVYHHKRASGSRTLARRGLQNDMVLGTRSVRQDQPLPGKGSPVDAGSPEVPMDYHEDDKRFRREEYEGNLLEAGLELENDEDTKIHGVGFVKIHAPWHVLCREAEFLKLKMPTKKVYHISETRGLLKTINSVLQKITDPIQPKVAEHRPQTTKRLSYPFSREKQHLFDLTDRDSFFDSKTRSTIVYEILKRTTCTKAKYSMGITSLLANGVYSAAYPLHDGDYEGDNVEFNDRKLLYEEWASYGVFYKYQPIDLVRKYFGEKVGLYFAWLGAYTQMLIPASIVGVIVFLYGCATVDENIPSMEMCDQRYNITMCPLCDKTCSYWKMSSACATARASHLFDNPATVFFSVFMALWAATFMEHWKRKQMRLNYRWDLTGFEEEEEAVKDHPRAEYEARVLEKSLRKESRNKETDKVKLTWRDRFPAYFTNLVSIIFMIAVTFAIVLGVIIYRISTAAALAMNSSPSVRSNIRVTVTATAVIINLVVIILLDEVYGCIARWLTKIEVPKTEKSFEERLTFKAFLLKFVNSYTPIFYVAFFKGRFVGRPGDYVYIFRSFRMEECAPGGCLMELCIQLSIIMLGKQLIQNNLFEIGIPKMKKFIRYLKLRRQSPSDREEYVKRKQRYEVDFNLEPFAGLTPEYMEMIIQFGFVTLFVASFPLAPLFALLNNIIEIRLDAKKFVTELRRPVAIRAKDIGIWYNILRGVGKLAVIINAFVISFTSDFIPRLVYLYMYSQNGTMHGFVNHTLSSFNVSDFQNGTAPNDPLDLGYEVQICRYKDYREPPWSEHKYDISKDFWAVLAARLAFVIVFQNLVMFMSDFVDWVIPDIPKDISQQIHKEKVLMVELFMREEQGKQQLLDTWMEKEKPRDVPCNNHSPTTHPEAGDGSPVPSYEYHGDAL
- stoichiometry N: 2
